Our source for the Kd and stoichiometry N values is paper PMC3045603.

For test [1], the target named is wild-type yeast ScNep1 with an N-terminal hexahistidine tag (S. cerevisiae) (UniProt Q06287). The test can be described thus: SEC.
Test [2] addresses yeast ScNep1^D90G (Bowen-Conradi syndrome mutation) with an N-terminal hexahistidine tag (S. cerevisiae) (UniProt Q06287). Put plainly: SEC.

pKd: −log10 of the molar value.

As to “wild-type yeast ScNep1 with an N-terminal hexahistidine tag (from UniProt Q06287 1-252) (enzyme)”, the pKd (as a rule, −log10 of the Kd, conventionally taken in molar units) in test [1] is 3.87.

Take “yeast ScNep1^D90G (Bowen-Conradi syndrome mutation) with an N-terminal hexahistidine tag (from UniProt Q06287 1-252) (enzyme)”: in test [2], the pKd was 5.24 and the stoichiometry N (in general, a count of units in the complex or per binding partner) came out at 2.
